Measured values reported in US20190367631A1 (Regeneron, published 2019).

T1: full length human MSR1 with a C-terminal Myc tag, on HEK293.Myc.hMSR1 cells (human, UniProt P21757 1-451)
T1 sequence (looked up): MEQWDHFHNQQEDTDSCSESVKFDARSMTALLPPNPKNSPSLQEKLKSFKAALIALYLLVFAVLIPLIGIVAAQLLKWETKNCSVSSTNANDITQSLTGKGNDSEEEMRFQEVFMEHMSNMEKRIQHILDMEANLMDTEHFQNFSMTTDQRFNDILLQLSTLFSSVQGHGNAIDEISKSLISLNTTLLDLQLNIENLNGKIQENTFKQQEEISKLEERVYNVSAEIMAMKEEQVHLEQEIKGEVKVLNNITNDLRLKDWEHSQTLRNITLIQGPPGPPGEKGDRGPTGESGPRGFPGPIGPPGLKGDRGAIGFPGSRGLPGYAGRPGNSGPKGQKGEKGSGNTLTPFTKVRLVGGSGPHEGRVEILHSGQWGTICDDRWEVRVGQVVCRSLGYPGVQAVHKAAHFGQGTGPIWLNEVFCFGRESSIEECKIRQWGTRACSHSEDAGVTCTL

T2: full length monkey MSR1 on HEK293.mfMSR1 cells (Macaca fascicularis, UniProt A0A2K5UWE2 1-451)
T2 construct: whole, on cells
T2 sequence: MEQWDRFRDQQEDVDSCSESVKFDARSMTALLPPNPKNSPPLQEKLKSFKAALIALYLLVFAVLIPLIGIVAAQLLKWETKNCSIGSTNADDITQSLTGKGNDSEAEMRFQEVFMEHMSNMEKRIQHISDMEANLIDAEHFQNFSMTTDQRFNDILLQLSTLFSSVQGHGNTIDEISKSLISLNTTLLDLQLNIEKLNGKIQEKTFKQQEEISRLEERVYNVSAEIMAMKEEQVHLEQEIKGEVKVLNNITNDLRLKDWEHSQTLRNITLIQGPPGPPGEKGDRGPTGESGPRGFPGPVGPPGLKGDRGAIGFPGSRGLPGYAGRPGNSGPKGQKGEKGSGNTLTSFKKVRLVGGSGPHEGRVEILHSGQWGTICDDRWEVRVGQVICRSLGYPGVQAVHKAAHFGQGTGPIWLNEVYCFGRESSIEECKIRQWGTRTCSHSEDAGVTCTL

T3: mouse MSR1 on RAW264.7 cells (mouse, UniProt P30204 1-458)
T3 construct: whole, on cells; also called MSR1 positive RAW264.7 cells
T3 sequence (looked up): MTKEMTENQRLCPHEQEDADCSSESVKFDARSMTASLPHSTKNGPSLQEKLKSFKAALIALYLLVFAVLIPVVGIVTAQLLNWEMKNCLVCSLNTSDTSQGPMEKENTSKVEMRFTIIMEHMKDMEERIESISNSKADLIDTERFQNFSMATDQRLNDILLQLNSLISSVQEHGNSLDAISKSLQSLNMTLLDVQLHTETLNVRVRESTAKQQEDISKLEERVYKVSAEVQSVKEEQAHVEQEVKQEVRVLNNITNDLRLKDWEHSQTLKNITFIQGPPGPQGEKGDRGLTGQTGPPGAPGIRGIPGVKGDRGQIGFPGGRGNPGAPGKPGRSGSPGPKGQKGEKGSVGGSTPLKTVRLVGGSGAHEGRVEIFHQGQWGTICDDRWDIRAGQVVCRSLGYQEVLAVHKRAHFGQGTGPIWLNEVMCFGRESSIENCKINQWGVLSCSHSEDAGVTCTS

B1: H1H27762P2-N297Q (antibody, human IgG1, V domains shown)
VH: QVQLVQSGAEVKKPGSSVKVSCKASGGTFSRYDISWVRQAPGQGLEWMGGIIPIFGTSNYAQKFQGRVTITTDESTSTVYMELSSLRSEDTAVYYCARGGRYGWFDPWGQGTLVTVSS
VL: not shown
notes: human IgG1 Fc with N297Q; also called H1H27762P-N297Q
B2: H1H27739P-N297Q (antibody, human IgG1, V domains shown)
VH: EVQLVESGGGLVQPGGSLRLSCTASGFTFSSYAMSWVRQAPGKGLEWVSAISGTGSSTYFTDSVKGRFAISRDNSKNTLYLQMNSLRAEDTAVYYCAKDGEWLSTVTLFDYWGQGTLVTVSS
VL: EIVMTQSPATLSVSPGERATLSCRASQSVSSNLAWYQQKPGQAPRLLIYGASTRATGIPARFSGSGSGTDFTLTISSLQSEDFALYYCQQYFIWPPHPTFGPGTKVDIKR
notes: human IgG1 Fc with N297Q
B3: H1H27761P2-N297Q (antibody, human IgG1, V domains shown)
VH: EVQLVESGGDLVQPGGSLRLSCSASGFTFNIYAMSWVRQAPGKGLEWVSGISGSGGSTYYADSVKGRFTISRDNSKNTLYFQMNSLRVEDTAVYYCAKKISSSSYYYYAMDVWGQGTTVTVSS
VL: not shown
notes: human IgG1 Fc with N297Q; also called H1H27761P-N297Q
B4: H1H21234N-N297Q (antibody, human IgG1, V domains shown)
VH: QVQLQESGPGLVKPSETLSLTCTVTGGSISRNYWSWIRQPPGKGLEWIGYIYYSGSIDYNPSLKSRVTISVDTSKNQFSLKLSSMTAADTAVYYCARDRWNWKYGMDVWGQGTTVIVSS
VL: EIVLTQSPGTLSLSPGERATLSCRASQTVRNNYLAWYHQKPGQAPRLLIYGASSRATGIPDRFSGSGSGTDFTLTISRLEPEDFTVYYCHQYGNSPWTFGQGTKMEIKR
notes: human IgG1 Fc with N297Q point mutation (EU numbering)
B5: H1H21234N (antibody, human IgG1, V domains shown)
VH: B4 VH
VL: B4 VL
notes: original human IgG1 Fc
B6: H2aM21228N (antibody, mouse IgG2a, V domains shown)
VH: VQLVESGGGLVQPGGSLRLSCAASGFTFSDHYMDWVRQAPGKGLEWVGRTRNKANSHTTEYAASVSGRFTISRDDSKNSLYLQMNSLKTEDTAVYYCTRAGIIGTLFDYWGQGTLVTVSS
VL: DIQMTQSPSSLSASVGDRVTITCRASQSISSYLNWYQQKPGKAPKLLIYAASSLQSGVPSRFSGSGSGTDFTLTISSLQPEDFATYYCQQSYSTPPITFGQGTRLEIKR
notes: mouse IgG2a Fc
B7: H1H27731P-N297Q (antibody, V domains shown)
VH: QLQLQESGPGLVKPSETLSLTCTVSGGSISRISYYWGWIRQPPGKGLEWIGSIYDSGSTYYNPSLKSRVTISIDTSKNQFSLKLSSVTAADTAVYYCVRYSSSSAFAFDYWGQGTLVTVSS
VL: DIQMTQSPSSVSASVGDRVTITCRASQGISSWLAWYQQKPGKAPKLLIYAASSLQSGVPSRFSGSGSGTDFTLTISSLQPEDFATYYCQQANSFPFTFGPGTKVDIKR
notes: human IgG1 Fc with N297Q
B8: H1H27751P-N297Q (antibody, human IgG1, V domains shown)
VH: EVQLVESGGGLVQPGGSLRLSCAASGFTFSNYAMHWVRQAPGKGLEYVSAISSNGGSTYYADSVKGRITISRDNSKNTLYLQMGSLRAEDMAVYYCARGRPYYYYFGMDVWGQGTTVTVSS
VL: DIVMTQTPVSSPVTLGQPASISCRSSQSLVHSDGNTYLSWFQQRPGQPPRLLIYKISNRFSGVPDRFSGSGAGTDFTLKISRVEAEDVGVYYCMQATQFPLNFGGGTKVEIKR
notes: human IgG1 Fc with N297Q
B9: H1H27766P2-N297Q (antibody, human IgG1, V domains shown)
VH: EVQLVESGGGLVQPGGSLRLSCAASGFTFSSFAMSWVRQAPGKELEWVSSISGRGGSTYYADSVRGRFTISRDNSKITLYLQMNSLRAEDTAVYYCAKDIVFRYTSSAYWYFDLWGRGTLVTVSS
VL: not shown
notes: human IgG1 Fc with N297Q; also called H1H27766P-N297Q
B10: H1H27759P2-N297Q (antibody, human IgG1, V domains shown)
VH: EVQLVESGGGFVQPGGSLRLSCAASGFTFSSYAMSWVRQAPGKGLEWVSAISGTGSNTYYADSVKGRFTISRDNSKNTLYLQMNSLRAEDTAVYYCAKDRVTTVTYYFDYWGQGTLVTVSS
VL: not shown
notes: human IgG1 Fc with N297Q; also called H1H27759P-N297Q
B11: H1H27729P-N297Q (antibody, human IgG1, V domains shown)
VH: QVQLVESGGGLVKPGGSLRLSCAASGFIFSDYYMSWIRQAPGKGLEWVSYISSSGTTIYGDSVKGRFTMSRDNAKNSLYLQMNSLRAEDTAVYYCARNYALFDYWGQGTLVTVSS
VL: DIQMTQSPSSLSASVGDRVTITCQASQDISKYLNWYQQKPGKAPKLLIYYTSNLETGVPSRFSGSGSGTDFTFTISSLQPEDIATYYCHQSDYLPFTFGPGTKVDIKR
notes: human IgG1 Fc with N297Q

target: T1, full length human MSR1 with a …; assay: cell-based or functional assay

Binder	% Inhibition of Dil-Acetylated LDL uptake [%]	% Inhibition of Dil-Oxidized LDL uptake [%]	IC50 of Dil-Acetylated LDL uptake inhibition [nM]	IC50 of Dil-Oxidized LDL uptake inhibition [nM]
B1	38	78	2.9	4
B2	–	55	–	> 100
B3	29	43	> 100	9.5
B4	34	52	1.3	6.1
B5	36	64	0.71	4.3
B6	10	79	> 100	3.1
B7	37	62	1.8	> 10
B8	59	85	1.6	2.9
B9	38	72	3.5	3.7
B10	48	74	> 100	> 10
B11	28	–	1.2	–

target: T1, full length human MSR1 with a …; assay: ECL cell binding, HEK293.Myc.hMSR1 cells, 11 nM
Procedure: All cells were washed once with 1×PBS with Ca²⁺/Mg²⁺ and counted with a Cellometer™ Auto T4 cell counter (Nexcelom Bioscience). Approximately 1.0×10⁴ cells were seeded separately onto 96-well carbon electrode plates [MULTI-ARRAY high bind plate, Meso Scale Diagnostics] and incubated for 1 hour at 37° C. Non-specific binding sites were then blocked by 2% BSA (w/v) in PBS with Ca²⁺/Mg²⁺ for 1 hour at room temperature. THP-1 cells were pre-incubated for 0.5 hours at room temperature in sample dilution buffer with: 1) 1 mg/mL Fc receptor block reagents to block Fc gamma receptors on THP-1 cell surface [whole molecule human IgG (Jackson Immunoresearch, Cat #009-000-003) for wells being tested with anti-MSR1-mFc antibodies or 2) whole molecule mlgG (Jackson Immunoresearch, Cat #015-000-003) for wells being tested with anti-MSR1-hFc antibodies. Antibody binding on HEK293.Myc.hMSR1, HEK293.mfMSR1 and HEK293 cells was tested without Fc receptor block reagents. […] Plates were then washed to remove unbound antibodies an AquaMax2000 plate washer with a cell washing head (MDS Analytical Technologies). […] Plates were washed and developed with Read Buffer (Meso Scale Diagnostics, Cat # R92TD-2) according to manufacturer's recommended procedure and luminescent signals were recorded with a SECTOR Imager 600 (Meso Scale Diagnostics). Luminescence intensity, measured in relative light units (RLU), was recorded to indicate the binding intensity of each antibody at the range of concentrations.

Binder	ratio of binding signal (RLU) to isotype control [fold]
B1	33
B2	22
B3	23
B4	43
B5	32
B6	66
B7	48
B8	63
B9	20
B10	23
B11	17

target: T2, full length monkey MSR1 on …; assay: ECL cell binding, HEK293.mfMSR1 cells, 11 nM

Binder	ratio of binding signal (RLU) to isotype control [fold]
B1	25
B2	20
B3	15
B4	35
B5	31
B6	60
B7	43
B8	49
B9	13
B10	25
B11	6

target: T3, mouse MSR1 on RAW264.7 cells; assay: flow cytometry, RAW264.7 cells
Procedure: To block binding to Fc receptors, RAW264.7 cells were incubated for 30 minutes at 4° C. with 500 pg/mL mouse IgG (Jackson ImmunoResearch, Cat #015-000-003) diluted in staining buffer, while B16F10.9 cells remained in staining buffer. […] The signal to noise (S/N) was determined by calculating the ratio of the anti-MSR1 antibodies or the control antibodies MFI to the unstained sample MFI (Table 11).

Binder	MFI [MFI]	S/N (MFI over unstained MFI)
B1	3520	1
B2	3270	1
B3	3840	1
B4	7050	3
B7	3510	1
B8	3820	1
B9	3810	1
B10	3290	1
B11	3480	1
